T1: KRAS G13D (G13D-RT6) peptide on HLA-DQA1*05:01 / HLA-DQB1*03:01 (human)
T1 peptide: YKLVVVGAGDVGKSAL

B1: B8.2.4 TCR mutant α97R-A (TCR, V domains shown)
Valpha: AQKITQTQPGMFVQEKEAVTLDCTYDTSDPSYGLFWYKQPSSGEMIFLIYQGSYDQQNATEGRYSLNFQKARKSANLVISASQLGDSAMYFCAMREATGTASKLTFGTGTRLQVTL
Vbeta: DVKVTQSSRYLVKRTGEKVFLECVQDMDHENMFWYRQDPGLGLRLIYFSYDVKMKEKGDIPEGYSVSREKKERFSLILESASTNQTSMYLCASSQTVPPQHFGDGTRLSIL
B2: B8.2.4 TCR mutant α97R-C (TCR, V domains shown)
Valpha: AQKITQTQPGMFVQEKEAVTLDCTYDTSDPSYGLFWYKQPSSGEMIFLIYQGSYDQQNATEGRYSLNFQKARKSANLVISASQLGDSAMYFCAMRECTGTASKLTFGTGTRLQVTL
Vbeta: DVKVTQSSRYLVKRTGEKVFLECVQDMDHENMFWYRQDPGLGLRLIYFSYDVKMKEKGDIPEGYSVSREKKERFSLILESASTNQTSMYLCASSQTVPPQHFGDGTRLSIL
B3: B8.2.4 TCR mutant α97R-H (TCR, V domains shown)
Valpha: AQKITQTQPGMFVQEKEAVTLDCTYDTSDPSYGLFWYKQPSSGEMIFLIYQGSYDQQNATEGRYSLNFQKARKSANLVISASQLGDSAMYFCAMREHTGTASKLTFGTGTRLQVTL
Vbeta: DVKVTQSSRYLVKRTGEKVFLECVQDMDHENMFWYRQDPGLGLRLIYFSYDVKMKEKGDIPEGYSVSREKKERFSLILESASTNQTSMYLCASSQTVPPQHFGDGTRLSIL
B4: B8.2.4 TCR mutant α97R-D (TCR, V domains shown)
Valpha: AQKITQTQPGMFVQEKEAVTLDCTYDTSDPSYGLFWYKQPSSGEMIFLIYQGSYDQQNATEGRYSLNFQKARKSANLVISASQLGDSAMYFCAMREDTGTASKLTFGTGTRLQVTL
Vbeta: DVKVTQSSRYLVKRTGEKVFLECVQDMDHENMFWYRQDPGLGLRLIYFSYDVKMKEKGDIPEGYSVSREKKERFSLILESASTNQTSMYLCASSQTVPPQHFGDGTRLSIL
B5: B8.2.4 TCR mutant α97R-E (TCR, V domains shown)
Valpha: AQKITQTQPGMFVQEKEAVTLDCTYDTSDPSYGLFWYKQPSSGEMIFLIYQGSYDQQNATEGRYSLNFQKARKSANLVISASQLGDSAMYFCAMREETGTASKLTFGTGTRLQVTL
Vbeta: DVKVTQSSRYLVKRTGEKVFLECVQDMDHENMFWYRQDPGLGLRLIYFSYDVKMKEKGDIPEGYSVSREKKERFSLILESASTNQTSMYLCASSQTVPPQHFGDGTRLSIL
B6: B8.2.4 TCR mutant α97R-I (TCR, V domains shown)
Valpha: AQKITQTQPGMFVQEKEAVTLDCTYDTSDPSYGLFWYKQPSSGEMIFLIYQGSYDQQNATEGRYSLNFQKARKSANLVISASQLGDSAMYFCAMREITGTASKLTFGTGTRLQVTL
Vbeta: DVKVTQSSRYLVKRTGEKVFLECVQDMDHENMFWYRQDPGLGLRLIYFSYDVKMKEKGDIPEGYSVSREKKERFSLILESASTNQTSMYLCASSQTVPPQHFGDGTRLSIL
B7: B8.2.4 TCR mutant α97R-T (TCR, V domains shown)
Valpha: AQKITQTQPGMFVQEKEAVTLDCTYDTSDPSYGLFWYKQPSSGEMIFLIYQGSYDQQNATEGRYSLNFQKARKSANLVISASQLGDSAMYFCAMRETTGTASKLTFGTGTRLQVTL
Vbeta: DVKVTQSSRYLVKRTGEKVFLECVQDMDHENMFWYRQDPGLGLRLIYFSYDVKMKEKGDIPEGYSVSREKKERFSLILESASTNQTSMYLCASSQTVPPQHFGDGTRLSIL
B8: B8.2.4 TCR mutant α97R-K (TCR, V domains shown)
Valpha: AQKITQTQPGMFVQEKEAVTLDCTYDTSDPSYGLFWYKQPSSGEMIFLIYQGSYDQQNATEGRYSLNFQKARKSANLVISASQLGDSAMYFCAMREKTGTASKLTFGTGTRLQVTL
Vbeta: DVKVTQSSRYLVKRTGEKVFLECVQDMDHENMFWYRQDPGLGLRLIYFSYDVKMKEKGDIPEGYSVSREKKERFSLILESASTNQTSMYLCASSQTVPPQHFGDGTRLSIL
B9: B8.2.4 TCR mutant α97R-N (TCR, V domains shown)
Valpha: AQKITQTQPGMFVQEKEAVTLDCTYDTSDPSYGLFWYKQPSSGEMIFLIYQGSYDQQNATEGRYSLNFQKARKSANLVISASQLGDSAMYFCAMRENTGTASKLTFGTGTRLQVTL
Vbeta: DVKVTQSSRYLVKRTGEKVFLECVQDMDHENMFWYRQDPGLGLRLIYFSYDVKMKEKGDIPEGYSVSREKKERFSLILESASTNQTSMYLCASSQTVPPQHFGDGTRLSIL
B10: B8.2.4 TCR mutant α97R-Y (TCR, V domains shown)
Valpha: AQKITQTQPGMFVQEKEAVTLDCTYDTSDPSYGLFWYKQPSSGEMIFLIYQGSYDQQNATEGRYSLNFQKARKSANLVISASQLGDSAMYFCAMREYTGTASKLTFGTGTRLQVTL
Vbeta: DVKVTQSSRYLVKRTGEKVFLECVQDMDHENMFWYRQDPGLGLRLIYFSYDVKMKEKGDIPEGYSVSREKKERFSLILESASTNQTSMYLCASSQTVPPQHFGDGTRLSIL
B11: B8.2.4 TCR mutant α97R-M (TCR, V domains shown)
Valpha: AQKITQTQPGMFVQEKEAVTLDCTYDTSDPSYGLFWYKQPSSGEMIFLIYQGSYDQQNATEGRYSLNFQKARKSANLVISASQLGDSAMYFCAMREMTGTASKLTFGTGTRLQVTL
Vbeta: DVKVTQSSRYLVKRTGEKVFLECVQDMDHENMFWYRQDPGLGLRLIYFSYDVKMKEKGDIPEGYSVSREKKERFSLILESASTNQTSMYLCASSQTVPPQHFGDGTRLSIL
B12: B8.2.4 TCR mutant α97R-V (TCR, V domains shown)
Valpha: AQKITQTQPGMFVQEKEAVTLDCTYDTSDPSYGLFWYKQPSSGEMIFLIYQGSYDQQNATEGRYSLNFQKARKSANLVISASQLGDSAMYFCAMREVTGTASKLTFGTGTRLQVTL
Vbeta: DVKVTQSSRYLVKRTGEKVFLECVQDMDHENMFWYRQDPGLGLRLIYFSYDVKMKEKGDIPEGYSVSREKKERFSLILESASTNQTSMYLCASSQTVPPQHFGDGTRLSIL
B13: B8.2.4 TCR mutant α97R-S (TCR, V domains shown)
Valpha: AQKITQTQPGMFVQEKEAVTLDCTYDTSDPSYGLFWYKQPSSGEMIFLIYQGSYDQQNATEGRYSLNFQKARKSANLVISASQLGDSAMYFCAMRESTGTASKLTFGTGTRLQVTL
Vbeta: DVKVTQSSRYLVKRTGEKVFLECVQDMDHENMFWYRQDPGLGLRLIYFSYDVKMKEKGDIPEGYSVSREKKERFSLILESASTNQTSMYLCASSQTVPPQHFGDGTRLSIL
B14: B8.2.4 TCR mutant α97R-W (TCR, V domains shown)
Valpha: AQKITQTQPGMFVQEKEAVTLDCTYDTSDPSYGLFWYKQPSSGEMIFLIYQGSYDQQNATEGRYSLNFQKARKSANLVISASQLGDSAMYFCAMREWTGTASKLTFGTGTRLQVTL
Vbeta: DVKVTQSSRYLVKRTGEKVFLECVQDMDHENMFWYRQDPGLGLRLIYFSYDVKMKEKGDIPEGYSVSREKKERFSLILESASTNQTSMYLCASSQTVPPQHFGDGTRLSIL
B15: B8.2.4 TCR mutant α97R-Q (TCR, V domains shown)
Valpha: AQKITQTQPGMFVQEKEAVTLDCTYDTSDPSYGLFWYKQPSSGEMIFLIYQGSYDQQNATEGRYSLNFQKARKSANLVISASQLGDSAMYFCAMREQTGTASKLTFGTGTRLQVTL
Vbeta: DVKVTQSSRYLVKRTGEKVFLECVQDMDHENMFWYRQDPGLGLRLIYFSYDVKMKEKGDIPEGYSVSREKKERFSLILESASTNQTSMYLCASSQTVPPQHFGDGTRLSIL

This test has as its target T1, KRAS G13D (G13D-RT6) peptide on …. Briefly: NFAT-luciferase; Jurkat-NFAT-Luc with the TCR and Lovo-DPA0301:DPB0501 cells loaded with G13D-RT6; against wild-type B8.2.4 TCR; full-length, on cells. The method, then: The TCR mutant (having a mutation present in CDR3 region) lentiviral vector was transduced into Jurkat-NFAT-Luc cell line, […] (G13D-RT6, SEQ ID NO: 20) were used as antigen-presenting cells (referred to as APCs), 2×10⁴ of the TCR-T and 2×10⁴ of the antigen-loaded APCs were co-cultured for 16-24 hours, added with ONE Glo Luciferase to detect the fluorescent signal expression, then TCR Mut RLU/WT RLU (ratio of RLU signal value of TCR mutant to RLU signal value of wild-type B8.2.4TCR) was calculated, and the results were shown in Table 9.
As for B1, the “TCR Mut RLU/WT RLU” value was determined as 0.13 ratio. Next, B2: 0.27 ratio.

Turning to B3, the “TCR Mut RLU/WT RLU” value was 0.13 ratio. Regarding B4, the “TCR Mut RLU/WT RLU” value stood at 0.17 ratio.

In the case of B5, the “TCR Mut RLU/WT RLU” value amounted to 0.16 ratio.

Take B6: the “TCR Mut RLU/WT RLU” value stood at 0.16 ratio. Next, B7: 0.23 ratio.

With B8, the “TCR Mut RLU/WT RLU” value came out at 0.24 ratio. Next, B9: 0.16 ratio; B10: 0.16 ratio; B11: 0.17 ratio. In the case of B12, the “TCR Mut RLU/WT RLU” value was 0.16 ratio.

For the molecule B13, the “TCR Mut RLU/WT RLU” value was 0.22 ratio. B14: the “TCR Mut RLU/WT RLU” value came out at 0.18 ratio. As to B15, the “TCR Mut RLU/WT RLU” value worked out at 0.16 ratio.

The values are drawn from US20240123070A1 (published 2024).
